# Assay results reported in the supplement of paper PMC7125110.
# ± gives the standard error. Variants at the floor of the assay were thinned out.
# B1: glmS ribozyme (parent)
# chain: AUAAAAGCGCCAGAACUACAGAAAUGUAGUUGACGAGGAGGAGGUUUAUCGAAUUUUCGGCGGAUGCCUCCAAA
# Assays:
# Settings in all cases: with glucosamine-6-phosphate
# [1] = variants of: B1; assay: self-cleavage kobs at 40 uM GlcN6P; higher = faster cleavage; RNA array
# How it was run: (§1)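 Over ~14 h at 37 °C, tiles were imaged as glucosamine-6-phosphate (40 μM to 10 mM) in HEPES/KCl/Mg(OAc)2 buffer flowed across sequenced MiSeq chips. The chips carried barcoded ribozyme variants transcribed in situ by E. coli RNA polymerase and tracked with a hybridised Cy3 probe. After normalisation to baseline and to non-cleaving reference variants, one- or two-exponential decay fits of per-tile medians gave kobs. kcat and KM followed from weighted Michaelis–Menten fits across concentrations.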
# [2] = variants of: B1; assay: self-cleavage kobs at 160 uM GlcN6P; higher = faster cleavage; RNA array
# How it was run: as §1
# [3] = variants of: B1; assay: self-cleavage kobs at 640 uM GlcN6P; higher = faster cleavage; RNA array
# How it was run: as §1
# [4] = variants of: B1; assay: self-cleavage kobs at 2500 uM GlcN6P; higher = faster cleavage; RNA array
# How it was run: as §1
# [5] = variants of: B1; assay: self-cleavage kobs at 10000 uM GlcN6P; higher = faster cleavage; RNA array
# How it was run: as §1
Variant,self-cleavage kobs at 40 uM GlcN6P [1],self-cleavage kobs at 160 uM GlcN6P [2],self-cleavage kobs at 640 uM GlcN6P [3],self-cleavage kobs at 2500 uM GlcN6P [4],self-cleavage kobs at 10000 uM GlcN6P [5]
C8U A33C,< 1e-05 s⁻¹,< 1e-05 s⁻¹,< 1e-05 s⁻¹,< 1e-05 s⁻¹,< 1e-05 s⁻¹
A6G G32U C34U,< 1e-05 s⁻¹,–,< 1e-05 s⁻¹,< 1e-05 s⁻¹,< 1e-05 s⁻¹
U47G A52U U69G,4.05e-05 ± 1.5e-05 s⁻¹,–,–,–,3.79e-05 ± 1.3e-05 s⁻¹
G41U C50U G59U G66U,< 1e-05 s⁻¹,–,–,–,–
C10G C16U U49C,< 1e-05 s⁻¹,–,< 1e-05 s⁻¹,–,–
U30A A33U C34G G37A,< 1e-05 s⁻¹,–,–,–,–
A6U G38U C71A,< 1e-05 s⁻¹,–,–,–,–
C8G C67A,< 1e-05 s⁻¹,< 1e-05 s⁻¹,< 1e-05 s⁻¹,< 1e-05 s⁻¹,< 1e-05 s⁻¹
C10A G13A U56C,< 1e-05 s⁻¹,–,–,–,–
U30G G62A,< 1e-05 s⁻¹,< 1e-05 s⁻¹,< 1e-05 s⁻¹,–,< 1e-05 s⁻¹
A6U A36G,< 1e-05 s⁻¹,< 1e-05 s⁻¹,< 1e-05 s⁻¹,–,< 1e-05 s⁻¹
C11A U46G A52C,< 1e-05 s⁻¹,–,–,–,< 1e-05 s⁻¹
C10G C50G C58A C61A,9.48e-05 ± 2.9e-05 s⁻¹,–,–,–,5.26e-05 ± 2e-05 s⁻¹
A52G U65A U69G C70U,5.09e-05 ± 1.9e-05 s⁻¹,–,–,–,3.34e-05 ± 1.4e-05 s⁻¹
U49C G59C,< 1e-05 s⁻¹,–,–,< 1e-05 s⁻¹,< 1e-05 s⁻¹
C34U G37A,< 1e-05 s⁻¹,–,–,< 1e-05 s⁻¹,< 1e-05 s⁻¹
A42C U49A G63C,< 1e-05 s⁻¹,–,–,–,–
C34A A39G A48U C68A,< 1e-05 s⁻¹,< 1e-05 s⁻¹,–,< 1e-05 s⁻¹,< 1e-05 s⁻¹
G35C C50A,< 1e-05 s⁻¹,< 1e-05 s⁻¹,< 1e-05 s⁻¹,< 1e-05 s⁻¹,< 1e-05 s⁻¹
U56A C68U,0.000143 ± 2.2e-05 s⁻¹,0.000404 ± 8.3e-05 s⁻¹,0.000955 ± 0.00014 s⁻¹,0.00101 ± 0.00018 s⁻¹,0.00472 ± 0.00088 s⁻¹
U56C G62C,< 1e-05 s⁻¹,–,< 1e-05 s⁻¹,–,< 1e-05 s⁻¹
A12U A36G A52U C71G,< 1e-05 s⁻¹,–,–,< 1e-05 s⁻¹,< 1e-05 s⁻¹

Variant,self-cleavage kobs at 40 uM GlcN6P [1],self-cleavage kobs at 160 uM GlcN6P [2],self-cleavage kobs at 640 uM GlcN6P [3],self-cleavage kobs at 2500 uM GlcN6P [4],self-cleavage kobs at 10000 uM GlcN6P [5]
C10G A33U C67G,< 1e-05 s⁻¹,–,–,–,–
G38U A52U U57G A64G,< 1e-05 s⁻¹,–,–,–,< 1e-05 s⁻¹
A14G G41A,0.000282 ± 3.2e-05 s⁻¹,0.000481 ± 7.9e-05 s⁻¹,0.00125 ± 0.00022 s⁻¹,0.00232 ± 0.00052 s⁻¹,0.00645 ± 0.0016 s⁻¹
U55G C70U,0.0011 ± 0.00013 s⁻¹,0.00151 ± 0.00031 s⁻¹,0.0043 ± 0.0011 s⁻¹,–,–
A6C C58U,< 1e-05 s⁻¹,< 1e-05 s⁻¹,–,–,< 1e-05 s⁻¹
G43C G66A,< 1e-05 s⁻¹,–,–,–,–
G32U U69G,7.55e-05 ± 1.7e-05 s⁻¹,–,0.000345 ± 8.4e-05 s⁻¹,–,9.29e-05 ± 1.7e-05 s⁻¹
U46C G51U,< 1e-05 s⁻¹,< 1e-05 s⁻¹,< 1e-05 s⁻¹,< 1e-05 s⁻¹,–
C11U G41C,< 1e-05 s⁻¹,< 1e-05 s⁻¹,–,–,–
A6U A33G G41A A64U,< 1e-05 s⁻¹,< 1e-05 s⁻¹,< 1e-05 s⁻¹,< 1e-05 s⁻¹,–
U31A U56A,0.000218 ± 3.2e-05 s⁻¹,–,0.00221 ± 0.00061 s⁻¹,0.00123 ± 0.0005 s⁻¹,0.00967 ± 0.0011 s⁻¹
C34G G41C,< 1e-05 s⁻¹,< 1e-05 s⁻¹,–,< 1e-05 s⁻¹,< 1e-05 s⁻¹
A14G A33G G59U,< 1e-05 s⁻¹,–,–,–,–
C16A U55A,7.92e-05 ± 1.5e-05 s⁻¹,–,–,0.000515 ± 0.00022 s⁻¹,0.00285 ± 0.00043 s⁻¹
U46G G66C,0.000227 ± 3.8e-05 s⁻¹,0.000418 ± 0.00013 s⁻¹,0.00135 ± 0.00038 s⁻¹,0.00594 ± 0.0017 s⁻¹,–
C34G C58U,< 1e-05 s⁻¹,–,< 1e-05 s⁻¹,< 1e-05 s⁻¹,< 1e-05 s⁻¹
A33C A42C,< 1e-05 s⁻¹,< 1e-05 s⁻¹,< 1e-05 s⁻¹,–,< 1e-05 s⁻¹
G13U U45G,< 1e-05 s⁻¹,–,–,8.28e-05 ± 2e-05 s⁻¹,0.000133 ± 1.8e-05 s⁻¹
A6G A12G A64U C70U,< 1e-05 s⁻¹,–,–,–,< 1e-05 s⁻¹
U31G C61G,< 1e-05 s⁻¹,< 1e-05 s⁻¹,< 1e-05 s⁻¹,–,< 1e-05 s⁻¹
G51C A53U,< 1e-05 s⁻¹,< 1e-05 s⁻¹,–,< 1e-05 s⁻¹,–
C19A U31A,0.000156 ± 5.1e-05 s⁻¹,–,–,0.00209 ± 0.001 s⁻¹,0.00693 ± 0.0019 s⁻¹
